Paper PMC6150531

Target: ALG-2 (human (endogenous in HeLa)) (UniProt O75340)
Chain of UniProt O75340 (O75340 whole entry): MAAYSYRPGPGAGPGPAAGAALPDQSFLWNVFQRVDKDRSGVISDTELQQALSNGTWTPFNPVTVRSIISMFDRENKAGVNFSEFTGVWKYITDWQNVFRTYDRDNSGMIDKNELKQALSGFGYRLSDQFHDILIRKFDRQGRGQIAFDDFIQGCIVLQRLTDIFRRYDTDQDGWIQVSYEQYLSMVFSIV

In the case of QGPPYPTYPGYPGYCQ [ALIX peptide], the viability of EGFP-expressing HeLa cells 1 hour after 50 uM digitonin in the presence of 10 uM peptide (about 60% without the peptide) is reported as 37 % viability.
